Laboratory results published in US20180273587A1 (AILERON THERAPEUTICS, published 2018).
Positions of bridges follow the written chain, without caps; N, C: chain ends. Non-standard residues stand in square brackets, D forms with d. hCha = N[C@@H](CCC1CCCCC1)C(=O)O; hPhe = N[C@@H](CCc1ccccc1)C(=O)O; R8 = C=CCCCCCC[C@@](C)(N)C(=O)O; αMeD = C[C@](N)(CC(=O)O)C(=O)O; S5 = C=CCCC[C@](C)(N)C(=O)O

B1: SEQ ID NO: 1630 (peptide)
peptide: Ac-WIAQALR[R8]IGDAFN[S5]YYA-NH2
modifications: staple 8-15
SMILES: CC[C@H](C)[C@H](NC(=O)[C@H](Cc1c[nH]c2ccccc12)NC(C)=O)C(=O)N[C@@H](C)C(=O)N[C@@H](CCC(N)=O)C(=O)N[C@@H](C)C(=O)N[C@@H](CC(C)C)C(=O)N[C@@H](CCCNC(=N)N)C(=O)N[C@]1(C)CCCCCCC=CCCC[C@@](C)(C(=O)N[C@@H](Cc2ccc(O)cc2)C(=O)N[C@@H](Cc2ccc(O)cc2)C(=O)N[C@@H](C)C(N)=O)NC(=O)[C@H](CC(N)=O)NC(=O)[C@H](Cc2ccccc2)NC(=O)[C@H](C)NC(=O)[C@H](CC(=O)O)NC(=O)CNC(=O)[C@H]([C@@H](C)CC)NC1=O
notes: also called Ac-WIAQALR$r8IGDAFN$YYA-NH2
B2: SEQ ID NO: 1635 (peptide)
peptide: Ac-IAQALR[R8]IGDAFN[S5]YYA-NH2
modifications: staple 7-14
SMILES: CC[C@H](C)[C@H](NC(C)=O)C(=O)N[C@@H](C)C(=O)N[C@@H](CCC(N)=O)C(=O)N[C@@H](C)C(=O)N[C@@H](CC(C)C)C(=O)N[C@@H](CCCNC(=N)N)C(=O)N[C@]1(C)CCCCCCC=CCCC[C@@](C)(C(=O)N[C@@H](Cc2ccc(O)cc2)C(=O)N[C@@H](Cc2ccc(O)cc2)C(=O)N[C@@H](C)C(N)=O)NC(=O)[C@H](CC(N)=O)NC(=O)[C@H](Cc2ccccc2)NC(=O)[C@H](C)NC(=O)[C@H](CC(=O)O)NC(=O)CNC(=O)[C@H]([C@@H](C)CC)NC1=O
notes: also called Ac-IAQALR$r8IGDAFN$YYA-NH2
B3: SEQ ID NO: 1640 (peptide)
peptide: Ac-IAQALR[R8]IGDAFN[S5]AYA-NH2
modifications: staple 7-14
SMILES: CC[C@H](C)[C@H](NC(C)=O)C(=O)N[C@@H](C)C(=O)N[C@@H](CCC(N)=O)C(=O)N[C@@H](C)C(=O)N[C@@H](CC(C)C)C(=O)N[C@@H](CCCNC(=N)N)C(=O)N[C@]1(C)CCCCCCC=CCCC[C@@](C)(C(=O)N[C@@H](C)C(=O)N[C@@H](Cc2ccc(O)cc2)C(=O)N[C@@H](C)C(N)=O)NC(=O)[C@H](CC(N)=O)NC(=O)[C@H](Cc2ccccc2)NC(=O)[C@H](C)NC(=O)[C@H](CC(=O)O)NC(=O)CNC(=O)[C@H]([C@@H](C)CC)NC1=O
notes: also called Ac-IAQALR$r8IGDAFN$AYA-NH2
B4: SEQ ID NO: 1636 (peptide)
peptide: Ac-IAAALR[R8]IGDAFN[S5]YYA-NH2
modifications: staple 7-14
SMILES: CC[C@H](C)[C@H](NC(C)=O)C(=O)N[C@@H](C)C(=O)N[C@@H](C)C(=O)N[C@@H](C)C(=O)N[C@@H](CC(C)C)C(=O)N[C@@H](CCCNC(=N)N)C(=O)N[C@]1(C)CCCCCCC=CCCC[C@@](C)(C(=O)N[C@@H](Cc2ccc(O)cc2)C(=O)N[C@@H](Cc2ccc(O)cc2)C(=O)N[C@@H](C)C(N)=O)NC(=O)[C@H](CC(N)=O)NC(=O)[C@H](Cc2ccccc2)NC(=O)[C@H](C)NC(=O)[C@H](CC(=O)O)NC(=O)CNC(=O)[C@H]([C@@H](C)CC)NC1=O
notes: also called Ac-IAAALR$r8IGDAFN$YYA-NH2
B5: SEQ ID NO: 1638 (peptide)
peptide: Ac-IAQALR[R8]IADAFN[S5]YYA-NH2
modifications: staple 7-14
SMILES: CC[C@H](C)[C@H](NC(C)=O)C(=O)N[C@@H](C)C(=O)N[C@@H](CCC(N)=O)C(=O)N[C@@H](C)C(=O)N[C@@H](CC(C)C)C(=O)N[C@@H](CCCNC(=N)N)C(=O)N[C@]1(C)CCCCCCC=CCCC[C@@](C)(C(=O)N[C@@H](Cc2ccc(O)cc2)C(=O)N[C@@H](Cc2ccc(O)cc2)C(=O)N[C@@H](C)C(N)=O)NC(=O)[C@H](CC(N)=O)NC(=O)[C@H](Cc2ccccc2)NC(=O)[C@H](C)NC(=O)[C@H](CC(=O)O)NC(=O)[C@H](C)NC(=O)[C@H]([C@@H](C)CC)NC1=O
notes: also called Ac-IAQALR$r8IADAFN$YYA-NH2
B6: SEQ ID NO: 1631 (peptide)
peptide: Ac-IAQALR[R8]IGDAFA[S5]YYA-NH2
modifications: staple 7-14
SMILES: CC[C@H](C)[C@H](NC(C)=O)C(=O)N[C@@H](C)C(=O)N[C@@H](CCC(N)=O)C(=O)N[C@@H](C)C(=O)N[C@@H](CC(C)C)C(=O)N[C@@H](CCCNC(=N)N)C(=O)N[C@]1(C)CCCCCCC=CCCC[C@@](C)(C(=O)N[C@@H](Cc2ccc(O)cc2)C(=O)N[C@@H](Cc2ccc(O)cc2)C(=O)N[C@@H](C)C(N)=O)NC(=O)[C@H](C)NC(=O)[C@H](Cc2ccccc2)NC(=O)[C@H](C)NC(=O)[C@H](CC(=O)O)NC(=O)CNC(=O)[C@H]([C@@H](C)CC)NC1=O
notes: also called Ac-IAQALR$r8IGDAFA$YYA-NH2
B7: SEQ ID NO: 1709 (peptide)
peptide: Ac-IWIAQALR[R8]IG[αMeD]AFN[S5]YYA-NH2
modifications: staple 9-16
SMILES: CC[C@H](C)[C@H](NC(C)=O)C(=O)N[C@@H](Cc1c[nH]c2ccccc12)C(=O)N[C@H](C(=O)N[C@@H](C)C(=O)N[C@@H](CCC(N)=O)C(=O)N[C@@H](C)C(=O)N[C@@H](CC(C)C)C(=O)N[C@@H](CCCNC(=N)N)C(=O)N[C@]1(C)CCCCCCC=CCCC[C@@](C)(C(=O)N[C@@H](Cc2ccc(O)cc2)C(=O)N[C@@H](Cc2ccc(O)cc2)C(=O)N[C@@H](C)C(N)=O)NC(=O)[C@H](CC(N)=O)NC(=O)[C@H](Cc2ccccc2)NC(=O)[C@H](C)NC(=O)[C@](C)(CC(=O)O)NC(=O)CNC(=O)[C@H]([C@@H](C)CC)NC1=O)[C@@H](C)CC
B8: SEQ ID NO: 1656 (peptide)
peptide: IWIAQALXAIGDQFNAYYA
modifications: not fully specified; Ac- at N-terminus; -NH2 at C-terminus; $r8 at 9 and $ at 16 joined by all-carbon crosslinker; Cit (citrulline) at 8
B9: SEQ ID NO: 1629 (peptide)
peptide: Ac-IWIAQELR[R8]IGDEFN[S5]YYARR-NH2
modifications: staple 9-16
SMILES: CC[C@H](C)[C@H](NC(C)=O)C(=O)N[C@@H](Cc1c[nH]c2ccccc12)C(=O)N[C@H](C(=O)N[C@@H](C)C(=O)N[C@@H](CCC(N)=O)C(=O)N[C@@H](CCC(=O)O)C(=O)N[C@@H](CC(C)C)C(=O)N[C@@H](CCCNC(=N)N)C(=O)N[C@]1(C)CCCCCCC=CCCC[C@@](C)(C(=O)N[C@@H](Cc2ccc(O)cc2)C(=O)N[C@@H](Cc2ccc(O)cc2)C(=O)N[C@@H](C)C(=O)N[C@@H](CCCNC(=N)N)C(=O)N[C@@H](CCCNC(=N)N)C(N)=O)NC(=O)[C@H](CC(N)=O)NC(=O)[C@H](Cc2ccccc2)NC(=O)[C@H](CCC(=O)O)NC(=O)[C@H](CC(=O)O)NC(=O)CNC(=O)[C@H]([C@@H](C)CC)NC1=O)[C@@H](C)CC
B10: SEQ ID NO: 1673 (peptide)
peptide: Ac-IWIAQALA[R8]IGDAFN[S5]YYA-NH2
modifications: staple 9-16
SMILES: CC[C@H](C)[C@H](NC(C)=O)C(=O)N[C@@H](Cc1c[nH]c2ccccc12)C(=O)N[C@H](C(=O)N[C@@H](C)C(=O)N[C@@H](CCC(N)=O)C(=O)N[C@@H](C)C(=O)N[C@@H](CC(C)C)C(=O)N[C@@H](C)C(=O)N[C@]1(C)CCCCCCC=CCCC[C@@](C)(C(=O)N[C@@H](Cc2ccc(O)cc2)C(=O)N[C@@H](Cc2ccc(O)cc2)C(=O)N[C@@H](C)C(N)=O)NC(=O)[C@H](CC(N)=O)NC(=O)[C@H](Cc2ccccc2)NC(=O)[C@H](C)NC(=O)[C@H](CC(=O)O)NC(=O)CNC(=O)[C@H]([C@@H](C)CC)NC1=O)[C@@H](C)CC
B11: SEQ ID NO: 1688 (peptide)
peptide: Ac-IWIAQA[hhL]R[R8]IGDAFN[S5]YYA-NH2
modifications: staple 9-16
notes: also called Ac-IWIAQAhhLR$r8IGDAFN$YYA-NH2
B12: SEQ ID NO: 1634 (peptide)
peptide: Ac-WIAQALR[R8]IGDAFN[S5]YYA-NH2
modifications: staple 8-15
SMILES: CC[C@H](C)[C@H](NC(=O)[C@H](Cc1c[nH]c2ccccc12)NC(C)=O)C(=O)N[C@@H](C)C(=O)N[C@@H](CCC(N)=O)C(=O)N[C@@H](C)C(=O)N[C@@H](CC(C)C)C(=O)N[C@@H](CCCNC(=N)N)C(=O)N[C@]1(C)CCCCCCC=CCCC[C@@](C)(C(=O)N[C@@H](Cc2ccc(O)cc2)C(=O)N[C@@H](Cc2ccc(O)cc2)C(=O)N[C@@H](C)C(N)=O)NC(=O)[C@H](CC(N)=O)NC(=O)[C@H](Cc2ccccc2)NC(=O)[C@H](C)NC(=O)[C@H](CC(=O)O)NC(=O)CNC(=O)[C@H]([C@@H](C)CC)NC1=O
notes: as for B1
B13: SEQ ID NO: 1692 (peptide)
peptide: Ac-IWIAQA[hPhe]R[R8]IGDAFN[S5]YYA-NH2
modifications: staple 9-16
SMILES: CC[C@H](C)[C@H](NC(C)=O)C(=O)N[C@@H](Cc1c[nH]c2ccccc12)C(=O)N[C@H](C(=O)N[C@@H](C)C(=O)N[C@@H](CCC(N)=O)C(=O)N[C@@H](C)C(=O)N[C@@H](CCc1ccccc1)C(=O)N[C@@H](CCCNC(=N)N)C(=O)N[C@]1(C)CCCCCCC=CCCC[C@@](C)(C(=O)N[C@@H](Cc2ccc(O)cc2)C(=O)N[C@@H](Cc2ccc(O)cc2)C(=O)N[C@@H](C)C(N)=O)NC(=O)[C@H](CC(N)=O)NC(=O)[C@H](Cc2ccccc2)NC(=O)[C@H](C)NC(=O)[C@H](CC(=O)O)NC(=O)CNC(=O)[C@H]([C@@H](C)CC)NC1=O)[C@@H](C)CC
notes: also called Ac-IWIAQAhFR$r8IGDAFN$YYA-NH2
B14: SEQ ID NO: 1690 (peptide)
peptide: Ac-IWIAQA[hCha]R[R8]IGDAFN[S5]YYA-NH2
modifications: staple 9-16
SMILES: CC[C@H](C)[C@H](NC(C)=O)C(=O)N[C@@H](Cc1c[nH]c2ccccc12)C(=O)N[C@H](C(=O)N[C@@H](C)C(=O)N[C@@H](CCC(N)=O)C(=O)N[C@@H](C)C(=O)N[C@@H](CCC1CCCCC1)C(=O)N[C@@H](CCCNC(=N)N)C(=O)N[C@]1(C)CCCCCCC=CCCC[C@@](C)(C(=O)N[C@@H](Cc2ccc(O)cc2)C(=O)N[C@@H](Cc2ccc(O)cc2)C(=O)N[C@@H](C)C(N)=O)NC(=O)[C@H](CC(N)=O)NC(=O)[C@H](Cc2ccccc2)NC(=O)[C@H](C)NC(=O)[C@H](CC(=O)O)NC(=O)CNC(=O)[C@H]([C@@H](C)CC)NC1=O)[C@@H](C)CC
notes: also called Ac-IWIAQAhChaR$r8IGDAFN$YYA-NH2

Target: BCL-XL (UniProt Q07817 1-209)
Assay: Ki table, method not stated

Sequence of BCL-XL (Q07817 1-209): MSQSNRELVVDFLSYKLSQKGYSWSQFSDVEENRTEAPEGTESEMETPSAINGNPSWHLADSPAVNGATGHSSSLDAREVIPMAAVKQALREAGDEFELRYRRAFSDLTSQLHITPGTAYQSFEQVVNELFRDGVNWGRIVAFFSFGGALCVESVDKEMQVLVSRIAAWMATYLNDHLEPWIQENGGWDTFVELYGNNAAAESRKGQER

| Ki [nM] | Binder |
| --- | --- |
| 213 | B1 |
| 309 | B2 |
| 472 | B3 |
| 256 | B4 |
| 243 | B5 |
| 374 | B6 |
| 15.5 | B7 |
| 28.8 | B8 |
| 9.2 | B9 |
| 386 | B10 |
| 136 | B11 |

Target: BCL-2 (UniProt P10415 1-217, limits assumed)
Assay: Ki table, method not stated

Sequence of BCL-2 (P10415 1-217 limits assumed): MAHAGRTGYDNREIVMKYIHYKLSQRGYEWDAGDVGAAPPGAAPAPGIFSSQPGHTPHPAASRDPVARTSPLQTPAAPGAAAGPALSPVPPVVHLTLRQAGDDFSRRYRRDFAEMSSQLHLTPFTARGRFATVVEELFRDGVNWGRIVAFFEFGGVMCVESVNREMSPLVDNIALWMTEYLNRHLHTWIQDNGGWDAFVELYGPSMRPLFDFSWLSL

| Ki [nM] | Binder |
| --- | --- |
| 424 | B1 |
| 519 | B2 |
| 804 | B3 |
| 319 | B4 |
| 272 | B5 |
| 878 | B6 |
| 410 | B12 |
| 88.2 | B8 |
| 23.5 | B9 |
| 231 | B11 |

Target: T1, MCL-1 (UniProt Q07820 172-327, limits assumed)
T1 construct: also called Myeloid cell leukemia 1
Assay: Ki table, method not stated

T1 sequence (Q07820 172-327 limits assumed): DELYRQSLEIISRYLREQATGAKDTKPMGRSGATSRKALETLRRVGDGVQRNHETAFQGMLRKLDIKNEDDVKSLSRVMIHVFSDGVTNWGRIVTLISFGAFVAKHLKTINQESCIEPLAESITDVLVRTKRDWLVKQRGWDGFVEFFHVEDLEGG

| Ki [nM] | Binder |
| --- | --- |
| 73.8 | B10 |
| 7.5 | B13 |
| 3.8 | B14 |
